From patent publication US8173771B2, “Humanin receptor or humanin-like polypeptide receptor” (Keio Univeristy, priority 2005, dated 2012)
Ends that are not written are not given here.

Columns and labels:
rat IL-6R [1] = target: T1, rat IL-6R (rat, UniProt P22273 20-462); assay: pull-down with HN-Sepharose 4B from lysates of transfected F11 cells, immunoblot
T1 construct: Overexpressed in F11 cells; stood in the cell lysate in the pull-down assay; also called IL-6 receptor; rat IL-6R (V6 tagged); not shown: printed as 'V6 tagged'
T1 sequence (looked up): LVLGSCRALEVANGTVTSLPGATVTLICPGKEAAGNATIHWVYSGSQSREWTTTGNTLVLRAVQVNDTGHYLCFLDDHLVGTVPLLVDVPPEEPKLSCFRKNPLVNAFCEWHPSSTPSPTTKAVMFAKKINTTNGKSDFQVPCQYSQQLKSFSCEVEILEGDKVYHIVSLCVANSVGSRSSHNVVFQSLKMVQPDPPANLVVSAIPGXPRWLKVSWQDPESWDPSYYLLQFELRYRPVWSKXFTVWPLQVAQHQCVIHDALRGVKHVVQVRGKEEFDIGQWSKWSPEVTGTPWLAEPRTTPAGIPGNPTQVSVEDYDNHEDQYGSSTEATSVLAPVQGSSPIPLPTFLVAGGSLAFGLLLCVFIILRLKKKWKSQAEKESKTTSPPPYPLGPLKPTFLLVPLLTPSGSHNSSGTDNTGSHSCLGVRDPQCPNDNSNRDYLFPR
Procedure: (§1) WSX-1, CNTF-R, and IL-6 were over-expressed in F11 cells and the pull down assay was made using the above 4B bead.
(§2) F11 cells (7×10^4/well in 6-well plates) were transfected with the plasmids encoding mycHis-WSX-1, V5-CNTF-R or rat IL-6R (V6 tagged). […] The beads were then reacted with a blocking buffer (0.2M glycine, pH 8.0) for 2 hrs at a room temperature, washed with the coupling buffer and stored at 4° C. for use in pull-down assay. For each pull-down assay, 20 μl of 1:1 slurry of Sepharose was used for 100 μl of the cell lysate.

[2] = target: T2, Humanin receptor (HNR) overexpressed in F11 cells: human CNTF-R/WSX-1/gp130 (human, UniProt P26992 23-342; Q6UWB1 33-636; P40189 23-918); assay: cold competitor in binding assay (2), F11 cells transfected with human CNTF-R/WSX-1/gp130
T2 construct: whole, on cells; The three human subunits co-transfected into F11 cells, which also carry the endogenous receptor; also called both the CNTF receptor and WSX-1; not shown: C-terminal V5 tag; C-terminal myc-His tag
T2 sequence (P40189 23-918, one chain of several): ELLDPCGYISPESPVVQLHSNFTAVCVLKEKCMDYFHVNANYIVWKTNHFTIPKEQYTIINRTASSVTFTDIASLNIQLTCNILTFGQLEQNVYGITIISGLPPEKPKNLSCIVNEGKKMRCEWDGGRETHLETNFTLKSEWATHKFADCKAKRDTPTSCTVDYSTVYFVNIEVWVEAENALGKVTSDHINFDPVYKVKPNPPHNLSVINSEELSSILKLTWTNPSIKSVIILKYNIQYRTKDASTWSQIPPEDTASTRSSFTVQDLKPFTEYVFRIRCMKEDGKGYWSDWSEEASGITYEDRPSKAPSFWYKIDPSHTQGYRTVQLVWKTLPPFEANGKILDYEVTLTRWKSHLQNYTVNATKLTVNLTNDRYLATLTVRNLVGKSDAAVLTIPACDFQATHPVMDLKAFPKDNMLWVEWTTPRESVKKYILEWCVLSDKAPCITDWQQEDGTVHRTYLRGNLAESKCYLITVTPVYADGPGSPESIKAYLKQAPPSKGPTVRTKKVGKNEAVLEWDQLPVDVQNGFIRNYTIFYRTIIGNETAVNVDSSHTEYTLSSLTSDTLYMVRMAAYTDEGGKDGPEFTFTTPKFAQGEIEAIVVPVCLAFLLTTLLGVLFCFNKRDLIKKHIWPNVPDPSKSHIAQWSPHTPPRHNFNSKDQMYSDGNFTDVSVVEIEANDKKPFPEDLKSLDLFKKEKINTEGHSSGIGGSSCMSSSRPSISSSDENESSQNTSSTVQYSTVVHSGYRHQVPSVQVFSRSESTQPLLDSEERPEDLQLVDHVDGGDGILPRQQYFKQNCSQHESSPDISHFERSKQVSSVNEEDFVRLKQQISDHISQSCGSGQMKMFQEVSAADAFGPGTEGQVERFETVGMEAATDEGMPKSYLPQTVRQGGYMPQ
Procedure: A) F11 cells were seeded on 96-well plates coated with poly-L-lysine (7 ×10^3 cells/well). […] On the other hand, F11 cells were transfected with 0.5 μg of pcDNA3.1/GS-human CNTF-R, pEF1/MycHis-human WSX-1, and 1.0 μg of pCAG-human gp130. At 24 hrs after the transfection, the cells were re-seeded on 96-well plates coated with poly-L-lysine (7 ×10^3 cells/well).
(§3) F11 cells (7×10^4/well in 6-well plates) were replated into 96-well plates (7×10^3 cells/well) at 24 hrs after transfection with indicated amounts of the plasmids encoding mycHis-WSX or V5-CNTF-R, and with PCAG-human gp130 if required. […] After 6 hrs incubation, they were fixed with 4% paraformaldehyde in PBS for 30 min. After washing with PBS, cells were stained with FITC-conjugated avidin (Molecularprobe, Eugene, Oreg., USA). Immunofluorescence intensity was measured (excitation=485 nm, emission=535 nm) with a spectrofluorometer (Wallac1420 ARVOsx Multi Label Counter). Immunohistochemical analysis was done with a laser-scanning, confocal microscope LSM (Carl Zeiss, Germany).

[3] = target: T3, C-terminally myc-tagged human WSX-1 (mycHis-WSX-1) (human, UniProt Q6UWB1 33-636); assay: pull-down with HNA-Sepharose 4B from lysates of transfected F11 cells, immunoblot
T3 construct: whole, on cells; in the pull-down and co-immunoprecipitation it stood in cell lysates; also called myc-WSX-1; IL-27 receptor; not shown: C-terminal myc-His tag of the pEF-mycHis vector
T3 sequence (looked up): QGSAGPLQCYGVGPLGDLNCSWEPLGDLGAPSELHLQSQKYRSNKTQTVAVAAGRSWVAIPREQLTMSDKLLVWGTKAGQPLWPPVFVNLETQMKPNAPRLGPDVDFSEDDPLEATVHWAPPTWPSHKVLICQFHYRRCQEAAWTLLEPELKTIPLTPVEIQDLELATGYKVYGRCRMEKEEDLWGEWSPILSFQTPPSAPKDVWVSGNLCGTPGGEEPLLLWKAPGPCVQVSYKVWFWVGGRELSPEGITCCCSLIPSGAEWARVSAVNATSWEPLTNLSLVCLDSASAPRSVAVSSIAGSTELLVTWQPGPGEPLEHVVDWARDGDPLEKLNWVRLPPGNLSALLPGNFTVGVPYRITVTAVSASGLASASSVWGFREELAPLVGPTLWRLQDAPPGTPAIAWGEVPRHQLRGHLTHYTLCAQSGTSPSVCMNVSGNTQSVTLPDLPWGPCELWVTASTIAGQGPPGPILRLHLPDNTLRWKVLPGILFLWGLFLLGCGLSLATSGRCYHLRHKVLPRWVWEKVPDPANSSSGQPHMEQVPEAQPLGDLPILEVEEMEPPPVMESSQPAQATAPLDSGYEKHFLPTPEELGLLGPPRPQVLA
Procedure: as §1, §2

[4] = target: T4, C-terminally V5-tagged human CNTF-R (V5-CNTF-R) (human, UniProt P26992 23-342); assay: as above
T4 construct: whole, on cells; in the pull-down and co-immunoprecipitation it stood in cell lysates; also called human CNTF receptor; CNTF receptor alpha chain; not shown: C-terminal V5 tag
T4 sequence (looked up): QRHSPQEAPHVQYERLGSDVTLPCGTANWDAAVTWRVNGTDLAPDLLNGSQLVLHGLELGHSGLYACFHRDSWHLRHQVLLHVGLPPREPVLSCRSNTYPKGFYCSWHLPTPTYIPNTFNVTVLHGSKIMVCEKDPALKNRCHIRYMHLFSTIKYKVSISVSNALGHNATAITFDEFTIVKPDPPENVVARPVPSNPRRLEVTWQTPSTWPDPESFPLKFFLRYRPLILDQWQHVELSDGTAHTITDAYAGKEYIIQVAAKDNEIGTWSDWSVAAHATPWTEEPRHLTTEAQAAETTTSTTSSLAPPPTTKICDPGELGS
Procedure: as §1, §2

rat IL-6R [5] = target: T1, rat IL-6R; assay: as above
Procedure: as §1, §2

myc-tagged mouse CREME9 = target: T5, myc-tagged mouse CREME9 (mouse, UniProt Q9Z2L7 1-442); assay: immunofluorescence-based HN binding assay (1) on F11 cells overexpressing CREME9 and human gp130
T5 construct: whole, on cells; Methods say mouse CREME9; Co-expressed with human gp130 in F11 cells; also called CRL4; pEF-mycHis CREME9; not shown: myc-His tag
T5 sequence (looked up): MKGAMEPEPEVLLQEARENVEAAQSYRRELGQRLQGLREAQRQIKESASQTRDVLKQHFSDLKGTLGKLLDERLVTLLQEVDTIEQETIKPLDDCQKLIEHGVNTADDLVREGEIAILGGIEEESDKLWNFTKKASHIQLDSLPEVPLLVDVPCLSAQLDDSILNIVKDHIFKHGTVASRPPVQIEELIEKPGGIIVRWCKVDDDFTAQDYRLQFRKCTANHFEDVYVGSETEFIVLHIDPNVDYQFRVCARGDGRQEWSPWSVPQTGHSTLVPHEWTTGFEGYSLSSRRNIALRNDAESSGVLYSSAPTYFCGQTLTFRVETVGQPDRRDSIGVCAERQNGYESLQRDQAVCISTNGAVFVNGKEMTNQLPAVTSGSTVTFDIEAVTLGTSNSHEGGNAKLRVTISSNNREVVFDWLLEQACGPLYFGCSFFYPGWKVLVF
Procedure: B) F11 cells were transfected with 0.5 µg of pEF-myc His human CREME9 or pEF-mycHis human WSX-1 in association with 0.5 µg of pCAG-human gp130. […] Fluorescence signals were detected with a laser-scanning, confocal microscope LSM (Carl Zeiss, Germany) (right panels).
as §3

B1: Humanin (HN) (peptide)
peptide: MAPRGFSCLLLLTSEIDLPVKRRA
notes: Synthetic 24-residue peptide; elsewhere it was used free and unlabeled; also called synthetic Humanin
binding result (rat IL-6R [1]): no binding | binding result [2]: binds

B2: C8A-Humanin (HNA) (peptide)
peptide: MAPRGFSALLLLTSEIDLPVKRRA
notes: Synthetic peptide, HN mutant with null activity used as negative control; also called C8A-HN
binding result [3]: no binding | binding result [4]: no binding | binding result (rat IL-6R [5]): no binding

B3: biotin-labeled HNG-FLAG (peptide)
peptide: MAPRGFSCLLLLTGEIDLPVKRRA
modifications: also: biotin label, position not given here, FLAG tag, sequence and position not given here
notes: the identity is therefore uncertain; not shown: FLAG tag
binding result (myc-tagged mouse CREME9): no binding (tested: 100 nM)
